Data published in patent US20050130265.

Key:
Ikaros = Ikaros (UniProt Q03267); test: cell_activity; conditions: NIH3T3 reporter
Helios (Mus musculus) = Helios (Mus musculus) (UniProt P81183); test: cell_activity; conditions: NIH3T3 reporter; requires Ikaros sites
Helios (Mus musculus), sequence (P81183 other isoform, or with tags, fused parts or gaps): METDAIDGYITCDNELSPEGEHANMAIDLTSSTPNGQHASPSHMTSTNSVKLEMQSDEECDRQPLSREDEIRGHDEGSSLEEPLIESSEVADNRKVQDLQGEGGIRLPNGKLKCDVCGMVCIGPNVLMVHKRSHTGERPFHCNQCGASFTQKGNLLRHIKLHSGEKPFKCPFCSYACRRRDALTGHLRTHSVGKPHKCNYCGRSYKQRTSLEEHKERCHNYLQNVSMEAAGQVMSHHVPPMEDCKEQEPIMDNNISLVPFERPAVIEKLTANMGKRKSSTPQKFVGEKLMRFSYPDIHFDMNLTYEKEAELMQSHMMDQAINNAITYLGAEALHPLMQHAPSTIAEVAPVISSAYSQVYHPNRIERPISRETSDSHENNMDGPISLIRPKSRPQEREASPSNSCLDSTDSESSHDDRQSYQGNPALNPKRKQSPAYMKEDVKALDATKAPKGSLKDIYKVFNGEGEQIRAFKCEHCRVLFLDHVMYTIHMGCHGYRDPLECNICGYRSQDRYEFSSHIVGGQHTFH

Ikaros, sequence (Q03267 other isoform, or with tags, fused parts or gaps): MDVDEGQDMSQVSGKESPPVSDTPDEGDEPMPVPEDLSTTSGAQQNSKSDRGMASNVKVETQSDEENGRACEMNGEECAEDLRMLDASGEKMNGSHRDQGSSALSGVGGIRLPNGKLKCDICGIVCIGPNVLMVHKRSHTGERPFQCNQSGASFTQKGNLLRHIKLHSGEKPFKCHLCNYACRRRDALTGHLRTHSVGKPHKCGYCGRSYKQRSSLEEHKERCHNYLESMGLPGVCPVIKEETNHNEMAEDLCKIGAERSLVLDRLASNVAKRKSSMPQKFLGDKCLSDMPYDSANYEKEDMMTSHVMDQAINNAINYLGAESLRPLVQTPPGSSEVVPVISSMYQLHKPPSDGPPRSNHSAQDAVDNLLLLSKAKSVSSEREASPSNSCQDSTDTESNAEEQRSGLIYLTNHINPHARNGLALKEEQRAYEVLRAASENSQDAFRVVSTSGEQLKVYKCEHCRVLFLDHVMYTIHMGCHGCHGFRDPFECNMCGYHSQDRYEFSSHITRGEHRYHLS

## 4x IkBS2 reporter
Ikaros
  activity (fold activation): 7.8
Helios (Mus musculus)
  activity (fold activation): 5
